Test results from patent publication US20130108636A1.

Molecular target: gp120s
Assay: binding assay, method not stated

B1: m36d1 (VHH)
chain: QVQLVQSGGGLVQPGGSLRLSCAASAFDFSDYEMSWVRQAPGKGLEWIGEINDSGNTIYNPSLKSRVTISRDNSKNTLYLQMNTLRAEDTAIYYCAIYGGNSGGEYWGQGTLVTVSSGGGGSGGGGSGGGGSQVQLVQSGGGLVQPGGSLRLSCAASAFDFSDYEMSWVRQAPGKGLEWIGEINDSGNTIYNPSLKSRVTISRDNSKNTLYLQMNTLRAEDTAIYYCAIYGGNSGGEYWGQGTLVTVSS
fold decrease in binding compared to m36: 16 fold
